Test results from patent publication US7211434B2, “Primitive neural stem cells and method for differentiation of stem cells to neural cells” (priority 2000, dated 2007).

How the values were obtained:
Format in all cases: cell-based, mouse
ES cells = test: Primary neural sphere colony formation from ES cells in serum-free low-density culture, 7 days; conditions: for primary colony formation, factor alone: ES cells at relatively low cell densities, serum-free, 7 days in vitro
Protocol: For passaging ES cells, cultures were disaggregated with 0.05% trypsin dissolved in Tris-saline/EDTA for 5–10 minutes, mechanically dissociated, centrifuged and resuspended in culture medium.
Passaged ES cells were washed (2 times), centrifuged and resuspended in chemically defined serum-free media (Reynolds et al., 1992; Reynolds & Weiss, 1996) composed of a 1:1 mixture of Dulbecco's modified Eagle's medium (DMEM GIBCO) and F-12 nutrient (GIBCO) including 0.6% glucose (Sigma), 2 mM glutamine (GIBCO), 3 mM sodium bicarbonate (Sigma), and 5 mM HEPFS buffer (Sigma). A defined hormone and salt mixture (Sigma) that included insulin (25 (g/ml), transferrin (100 (g/ml), progestrone (20 nM), putrescine (60 (M), and selenium chloride (30 nM) was used instead of serum. ES cells were plated at various cell densities in 24-well culture plates (Nunclon) in the presence of either LIF (1000 U/ml), LIF+FGF2 (10 ng/ml; Upstate Biotech or Sigma) and 2 (g/ml heparin (Sigma), or in the absence of any exogenous growth factors. For short term (4–24 hours) neural differentiation, ES cells were plated in identical culture conditions in 24-well culture plates (Nunclon) that were precoated with poly-L-ornithine (15 μg/ml, Gibco).
Limiting dilution analysis was performed as previously described (Bellows and Aubin, 1989; Tropepe et al., 1999). ES cells were plated in 24-well plates containing LIF (1000 U/ml). Cell numbers were adjusted to give a starting concentration of 5000 cells/ml from which serial dilutions were made. Final cell dilutions ranged from 1000 cells per well to 1 cell per well in 0.5 ml aliquots. Cultures were left undisturbed for 7 days after which time the fraction of wells not containing sphere colonies for each cell plating density was calculated and those points were plotted against the number of cells plated per well. The number of cells required to form one sphere colony, which reflected the proportion of neural stem cells in the entire population, was then determined from the point at which the regression line crossed the 0.37 level (37%). That is […], where F0 is the fraction of wells without sphere colonies and x is the mean number of cells per well. Based on a Poisson distribution of cells, F0=0.37 corresponds to the dilution at which there is one neural stem cell per well. The linear relationship observed between the cell density and the number of sphere colonies generated (regression coefficient R^2=0.99) can be accounted for by the clonal proliferation of a single rare population of cells.
Neuro2a (a murine neuroblastoma cell line) cells were seeded at 1×10^6 cells per 100 mm petri dish and transiently transfected with 10 μg of plasmid DNA by means of LipofectAMINE (Gibco) according to the manufacturer's instructions. After 6 hours, the culture media was changed to 10 ml of DMEM+10% FBS (Gibco). Twenty-four hours after transfection, culture media was changed to […] of serum-free media. Seventy-two hours after transfection, cell supernatant was collected and centrifuged to remove cellular debris. Supernatant media was aliquoted and stored at −70° C. […] Thus data from the 20% (v/v) experiments were used for the analysis. The plasmids pCS-V2 (gift from Dr. R. Moon) Hoppler et al., 1996) and pCS-cer-I (a gift from Dr. E. De Robertis) (Belo et al., 1997) were used.

[1] = test system: ES derived neural colonies; test: RT-PCR gene expression in ES-derived neural colonies; conditions: mCer-1 enriched media versus control media; data not shown
Protocol: Total RNA was isolated using the RNeasy extraction kit (Qiagen) and 1 μg of total RNA was used to synthesize cDNA with oligo-d(T)12-18 primers and MuMLV reverse transcriptase (Superscript II; Boehringer-Mannheim) at 42° C. for 1 hour. The PCR mixture (20 μl) consisted of 1 μl cDNA, 16 pmol 5 ″ primer, 16 pmol 3′ primer, specific for the gene in question 0.2 mM dNTP, 2 μl PCR reaction buffer and 0.8 U of Taq polymerase (Promega). cDNA was amplified in a thermal cycler (Perkin-Elmer) For all primer pairs denaturation for 30 sec at 94° C., annealing for 30 sec and extension at 72° C. was used. The sense and antisense primers, Mg^2 concentration, annealing temperature, extension time and number of PCR cycles were used for the following genes. Emx2: sense 5′-[…]-3′ (SEQ ID. No. 1), antisense 5′ […]-3′(SEQ. ID. No. 2), 1.65 mM Mg^2+, 56° C., 40 sec, 40 cycles. HoxB1: sense 5′-CCGGACCTTCGACTGGATG-3′(SEQ. ID. No. 3). antisense 5′-GGTCAGAGGCATCTCCAGC-3′(SEQ. ID. No. 4), 1.35 mM Mg^2+, 58° C., 40 sec, 40 cycles. Otx1: sense 5′-[…]-3′(SEQ. ID. No. 5). antisense 5′-[…]-3′(SEQ. ID. No. 6), 1.65 mM Mg^2+, 58° C., 40 sec, 40 cycles. Six3: sense 5′-[…]-3′(SEQ. ID. No. 7), antisense 5′-[…]-3′(SEQ. ID. No. 8), 1.35 mM Mg^2+, 56° C., 40 sec, 40 cycles. Brechyury: sense 5′-[…]-3′(SEQ. ID. No. 9), antisense 5′-[…]-3′(SEQ. ID. No. 10), 1.65 mM Mg^2+, 56° C., 1 min. 35 cycles. […]

[2] = test system: ES-derived neural sphere colony cells; test: Subcloning of single ES-derived sphere colonies (secondary colony formation, self-renewal); conditions: subcloned single primary colonies; factor alone
Protocol: Self-renewal of primary colony-formin) ES cells was assessed as previously described (Tropepe et al., 1999). Single sphere colonies were isolated, mechanically dissociated into a single cell suspension in 0.2 ml of serum-free media containing various combinations of LIF (1000 U/ml), […] (10 ng/ml), heparin (2 (g/ml), EGF (20 ng/ml; Upstate Biotech) or B27 supplement (1X) and cultured in 96-well (Nunclon) plates. Secondary sphere colonies were quantified after 7–10 days. A similar procedure was used for repeated passaging experiments. Cell viability after a 7-day culture period (sphere colony assay) or after 4–24 hours (short-term ES differentiation assay) was determined using trypan blue exclusion (1:2 dilution of 0.4% trypan blue; Gibco).

B1: mCer-1: mouse Cerberus-like protein in supernatant from transiently transfected Neuro2a cells (protein)
chain: DLCVDGCQSQGSLSFPLLERGRRDLHVANHEEAEDKPDLFVAVPHLMGTSLAGEGQRQRGKMLSRLGRFWKKPETEFYPPRDVESDHVSSGMQAVTQPADGRKVERSPLQEEAKRFWHRFMFRKGPAFQGVILPIKSHEVHWETCRTVPFNQTIAHEDCQKVVVQNNLCFGKCSSIRFPGEGADAHSFCSHCSPTKFTTVHLMLNCTSPTPVVKMVMQVEECQCMVKTERGEERLLLAGSQGSFIPGLPASKTNP
ES cells; 20% (v/v) mCer-1 supernatant in 0.5 ml serum-free media+LIF, versus backbone vector supernatant
  increase in the numbers of primary neural stem cell colonies: ~50%
[1]
  Otx-1 expression in ES derived neural colonies: express Otx-1

B2: BMP4: Human recombinant BMP4 protein provided by Genetics Institute Inc. (protein)
chain: SPKHHPQRSRKKNKNCRRHSLYVDFSDVGWNDWIVAPPGYQAFYCHGDCPFPLADHLNSTNHAIVQTLVNSVNSSIPKACCVPTELSAISMLYLDEYDKVVLKNYQEMVVEGCGCR
ES cells; 5-fold increase in BMP4 concentration, LIF and FGF2
  further effect on number of sphere colonies at higher BMP4 concentration: did not further significantly attenuate the number of sphere colonies generated
ES cells; BMP4 5 ng/ml, ES cell cultures containing LIF and FGF2, 20 cells/ul, 7 days
  decrease in the number of sphere colonies generated: greater than 50%

B3: Noggin: BMP protein antagonist; human recombinant Noggin protein provided by Regeneron Pharmaceuticals Inc. (protein)
chain: QHYLHIRPAPSDNLPLVDLIEHPDPIFDPKEKDLNETLLRSLLGGHYDPGFMATSPPEDRPGGGGGAAGGAEDLAELDQLLRQRPSGAMPSEIKGLEFSEGLAQGKKQRLSKKLRRKLQMWLWSQTFCPVLYAWNDLGSRFWPRYVKVGSCFSKRSCSVPEGMVCKPSKSVHLTVLRWRCQRRGGQRCGWIPIQYPIISECKCSC
ES cells; Noggin 100 μg/ml, primary ES cell cultures with LIF+FGF2, 7 days
  increase in the number of sphere colonies generated: 50%
ES cells; Noggin from 10 μg/ml to 100 μg/ml
  further effect on number of sphere colonies with rising Noggin concentration: no additional increase in the numbers of sphere colonies generated

B4: CNTT: another member of the cytokine family of signaling molecules to which LIF belongs (protein, UniProt P26441 1-200, looked up)
Ciliary neurotrophic factor: MAFTEHSPLTPHRRDLCSRSIWLARKIRSDLTALTESYVKHQGLNKNINLDSADGMPVASTDQWSELTEAERLQENLQAYRTFHVLLARLLEDQQVHFTPTEGDFHQAIHTLLLQVAAFAYQIEELMILLEYKIPRNEADGMPINVGDGGLFEKKLWGLKVLQELSQWTVRSIHDLRFISSHQTGIPARGSHYIANNKKM
ES cells
  primary colony formation, factor alone: unable to substitute as a colony-promoting factor

B5: FGF2: fibroblast growth factor family growth factor, 10 ng/ml with heparin (protein)
chain: PALPEDGGAAFPPGHFKDPKRLYCKNGGFFLRIHPDGRVDGVREKSDPHVKLQLQAEERGVVSIKGVCANRYLAMKEDGRLLASKCVTEECFFFERLESNNYNTYRSRKYSSWYVALKRTGQYKLGSKTGPGQKAILFLPMSAKS
ES cells
  primary colony formation, factor alone: no cell colonies were generated
ES cells; combined with LIF
  primary colony formation, factor combined with LIF versus LIF alone: non-significant trend toward facilitating LIF-dependent colony formation
[2]
  secondary neural stem cell colony formation: dependent upon the presence of exogenous FGF2
